Results on 1 molecule are retold here after patent US20240294632A1 (XL PROTEIN, published 2024).

In general, EC50 (read off the curve) refers to the midpoint of the concentration-response curve. A low value points to greater potency.

One experiment deals with T1, IL1Ra (Kineret/Anakinra) (UniProt P18510 26-177).
T1 construct: Commercial drug product; also called non-PASylated protein version
The experiment can be described thus: western blot, hybridoma supernatant 1:2000 or purified MAb 1:200000.

Experiment [1] has as its target T2, hu4D5-P/A #1(200).
T2 construct: Detected with anti-human kappa light chain antibody in the capture ELISA
The experiment in a line: MAb capture ELISA, hybridoma supernatant on anti-mouse IgG Fc, antigen titrated. Background: ELISA stands for enzyme-linked immunosorbent assay.

For the next experiment, the target named is T3, hu4D5-PAS #1(200).
T3 construct: Detected with anti-human kappa light chain antibody in the capture ELISA
Described as above.

In a further experiment the target is T4, P/A #1(200)-IL1Ra.
T4 construct: PASylated fusion protein produced in E. coli; Biotinylated for the SPR measurements with Fabs
T4 sequence (chain, as listed by the source limits assumed): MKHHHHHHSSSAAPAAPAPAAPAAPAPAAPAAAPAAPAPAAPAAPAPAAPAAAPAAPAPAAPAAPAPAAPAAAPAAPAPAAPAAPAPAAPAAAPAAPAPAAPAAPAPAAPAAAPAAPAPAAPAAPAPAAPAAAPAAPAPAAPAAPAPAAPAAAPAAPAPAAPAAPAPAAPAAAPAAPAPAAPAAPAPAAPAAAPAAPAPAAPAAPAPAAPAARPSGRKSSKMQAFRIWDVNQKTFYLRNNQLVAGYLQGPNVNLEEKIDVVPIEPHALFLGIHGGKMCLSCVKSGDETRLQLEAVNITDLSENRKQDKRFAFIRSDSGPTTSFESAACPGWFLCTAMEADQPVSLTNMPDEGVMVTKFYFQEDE
The experiment in a line: SPR, MAb from hybridoma supernatant captured by anti-mouse antibody, antigen as analyte, bivalent analyte model. For orientation: Surface plasmon resonance follows binding to a sensor surface in real time, without labels.

A further experiment concerns the target T5, PAS #1(200)-IL1Ra.
T5 construct: PASylated fusion protein produced in E. coli; Biotinylated for the SPR measurements with Fabs
Described as above.

Experiment [2] addresses T2, hu4D5-P/A #1(200). The experiment can be described thus: MAb capture ELISA: MAb from hybridoma supernatant captured by anti-mouse IgG Fc, hu4D5-P/A#1(200) titrated (x axis: antigen concentration).
The target in experiment [3] is T6, PASylated Thymosin alpha 1.
T6 construct: also called PASylated Tα1
T6 chain: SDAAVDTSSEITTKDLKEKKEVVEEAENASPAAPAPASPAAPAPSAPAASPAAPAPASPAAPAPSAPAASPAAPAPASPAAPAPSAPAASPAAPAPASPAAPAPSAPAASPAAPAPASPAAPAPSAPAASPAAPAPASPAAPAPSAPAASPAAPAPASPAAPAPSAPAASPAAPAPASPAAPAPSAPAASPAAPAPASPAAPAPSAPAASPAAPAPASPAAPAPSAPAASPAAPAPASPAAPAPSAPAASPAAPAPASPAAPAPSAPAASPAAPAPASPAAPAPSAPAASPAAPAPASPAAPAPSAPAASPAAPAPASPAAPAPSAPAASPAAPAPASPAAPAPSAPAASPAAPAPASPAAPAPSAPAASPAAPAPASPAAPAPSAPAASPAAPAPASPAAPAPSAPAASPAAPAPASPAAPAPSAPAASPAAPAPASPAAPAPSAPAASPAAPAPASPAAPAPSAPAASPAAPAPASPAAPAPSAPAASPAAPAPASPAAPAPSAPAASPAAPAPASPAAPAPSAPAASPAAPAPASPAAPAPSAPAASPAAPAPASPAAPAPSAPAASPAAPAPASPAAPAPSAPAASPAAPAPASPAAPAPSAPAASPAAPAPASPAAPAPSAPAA
The experiment in a line: sandwich ELISA in diluted rat plasma: MAb 2.1 coated as capture antibody, MAb 1.2-alkaline phosphatase as detection reagent; calibration curve.

T1 sequence (P18510 26-177 limits assumed): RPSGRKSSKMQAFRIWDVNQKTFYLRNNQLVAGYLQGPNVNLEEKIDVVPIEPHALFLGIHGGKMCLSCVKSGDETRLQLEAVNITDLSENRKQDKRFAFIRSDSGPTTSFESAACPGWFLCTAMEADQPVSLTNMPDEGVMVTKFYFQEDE
T5 sequence (chain, as listed by the source limits assumed): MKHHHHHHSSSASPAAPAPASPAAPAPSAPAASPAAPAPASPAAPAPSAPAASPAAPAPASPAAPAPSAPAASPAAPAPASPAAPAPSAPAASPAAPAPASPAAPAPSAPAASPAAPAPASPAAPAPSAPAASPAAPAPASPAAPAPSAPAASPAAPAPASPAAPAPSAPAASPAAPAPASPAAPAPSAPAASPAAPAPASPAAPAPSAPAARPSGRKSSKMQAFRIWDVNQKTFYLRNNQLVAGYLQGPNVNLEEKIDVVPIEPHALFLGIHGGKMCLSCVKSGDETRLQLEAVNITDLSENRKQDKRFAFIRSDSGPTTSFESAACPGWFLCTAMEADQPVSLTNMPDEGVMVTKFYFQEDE

B1: Anti-PA(S) MAb 2.1 (antibody, V domains shown)
VH: QVTLKESGPGILQPSQTLSLTCSFSGFSLSTYDMGVGWIRQPSGKGLEWLANIWWNDNKYYNSALKSRLTISKDTSNNQVFLKISSVDATDTATYYCAQMRDNYGVWFAFWGQGTLVTVSA
VL: DIVMSQSPSSLAVSVGEKVTMSCKSSQSLFYSNREKNYLAWYQQKPGQSPKLLIYWASTRESGVPDRFTGSGSGTDFTLTISNVKAEDLAVYYCQQYYNYPTFGAGTKLELKR
notes: Mouse monoclonal IgG from hybridoma (supernatant or protein G purified); also called DSM ACC3366
Turning to B1, the values for the binding result (in the experiment with IL1Ra (Kineret/Anakinra); in experiment [3]) were “no binding” and “binds”, respectively. Besides, the Kd is 170 pM with hu4D5-P/A #1(200) [1], 113 pM with hu4D5-PAS #1(200), 429 pM with P/A #1(200)-IL1Ra and 1700 pM in the experiment with PAS #1(200)-IL1Ra. Further, the “EC50 (read off the curve)” value with hu4D5-P/A #1(200) [2] was roughly 80 pM.
